In patent US20040014658A1:

What was measured:
Test in all cases: cell-based or functional assay
FGF Receptor 1 = molecular target: FGF Receptor 1
FGF Receptor 2 = molecular target: FGF Receptor 2
FGF Receptor 3 = molecular target: FGF Receptor 3

Measured: JNK activation (Western, anti-active JNK), lowest active concentration

Sequence of FGF Receptor 3 (P22607 23-806): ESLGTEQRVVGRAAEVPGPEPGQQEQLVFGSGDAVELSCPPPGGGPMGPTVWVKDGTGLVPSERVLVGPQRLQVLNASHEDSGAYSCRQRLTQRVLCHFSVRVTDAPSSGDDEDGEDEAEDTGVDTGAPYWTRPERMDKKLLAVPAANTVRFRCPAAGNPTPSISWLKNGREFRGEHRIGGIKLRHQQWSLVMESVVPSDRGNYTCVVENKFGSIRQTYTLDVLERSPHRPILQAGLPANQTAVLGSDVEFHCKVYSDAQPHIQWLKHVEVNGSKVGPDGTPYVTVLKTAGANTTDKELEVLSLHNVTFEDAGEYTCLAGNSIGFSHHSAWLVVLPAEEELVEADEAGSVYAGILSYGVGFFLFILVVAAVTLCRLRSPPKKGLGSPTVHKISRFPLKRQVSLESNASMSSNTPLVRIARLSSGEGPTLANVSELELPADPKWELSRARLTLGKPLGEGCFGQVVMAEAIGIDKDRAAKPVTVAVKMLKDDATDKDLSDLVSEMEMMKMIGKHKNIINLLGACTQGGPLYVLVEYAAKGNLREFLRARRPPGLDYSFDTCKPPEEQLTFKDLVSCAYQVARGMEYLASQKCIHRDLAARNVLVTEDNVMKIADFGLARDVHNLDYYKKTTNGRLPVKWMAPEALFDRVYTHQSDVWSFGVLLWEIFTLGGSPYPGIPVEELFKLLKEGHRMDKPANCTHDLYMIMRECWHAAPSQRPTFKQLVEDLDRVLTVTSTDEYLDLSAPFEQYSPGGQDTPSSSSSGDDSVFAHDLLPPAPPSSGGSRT

wild type FGF-9 (ligand)
< 12.5 ng/mL: all assays above
